The data set is described as follows: self-splicing fitness, log relative to wild type (ln ratio); higher = more splicing; Tetrahymena group I intron in knt gene, E. coli kanamycin selection, DiMSum; sequences stand for … in CUCUCU…GGAGGGAAAAGUUAUCAGGCAUGCACCUGGUAGCUAGUCUUUAAACCAAUAGAUUGCAUCGGUUUAAAAGGCAAGACCGUCAAAUUGCGGGAAAGGGGUCAACAGCCGUUCAGUACCAAGUCUCAGGGGAAACUUUGAGAUGGCCUUGCAAAGGGUAUGGUAAUAAGCUGACGGACAUGGUCCUAACCACGCAGCCAAGUCCUAAGUCAACAGAUCUUCUGUUGAUAUGGAUGCAGUUCACAGACUAAAUGUCGGUCGGGGAAGAUGUAUUCUUCUCAUAAGAUAUAGUCGGACCUCUCCUUAAUGGGAGCUAGCGGAUGAAGUGAUGCAACACUGGAGCCGCUGGGAACUAAUUUGUAUGCGAAAGUAUAUUGAUUAGUUUUGGAGUACUCGUGGUCG
In outline:
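Fitness was computed with DiMSum as the error-weighted combination of replicate fold changes, kanamycin versus none, each normalised to wild type. The library randomised all eight intron nucleotides of the P1ex region, with the intron placed in the knt kanamycin-resistance gene on pET-22b(+) in E. coli BL21(DE3). Six replicate transformations were grown overnight at 37°C or 30°C on LB agar with or without 25 μg/mL kanamycin, plus 100 μg/mL carbenicillin, 50 μM IPTG and 0.2% rhamnose. Pooled colonies were amplicon-sequenced on an Illumina HiSeq 2500.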

± gives the uncertainty stated by the source.

Regarding CCCUAGCAAUAUUACGUACU, the “self-splicing fitness (ln)” value reads like this: (30 °C) -2.78 ± 0.14; (37 °C) -2.65 ± 0.23. For UGUCAGCAAUAUUACGGGCG, in that order: -1.71 ± 0.093 and -1.26 ± 0.12. The like results for AAAUAGCAAUAUUACGUUAA were, in that order, -2.87 ± 0.2 and -2.1 ± 0.24. For AGAGAGCAAUAUUACGCAAG, the “self-splicing fitness (ln)” value is -3.46 ± 0.3 (30 °C) and -2.29 ± 0.3 (37 °C). With AGGGAGCAAUAUUACGAUUA, the “self-splicing fitness (ln)” value reads like this: (30 °C) -2.12 ± 0.18; (37 °C) -2.51 ± 0.35. For the sequence CCAAAGCAAUAUUACGCCAU, the “self-splicing fitness (ln)” value is -3.42 ± 0.17 (30 °C) and -1.88 ± 0.17 (37 °C). The like results for AUAAAGCAAUAUUACGAGUA were, in that order, -1.12 ± 0.086 and -0.205 ± 0.12. With CAUUAGCAAUAUUACGUCGC, the “self-splicing fitness (ln)” value (30 °C) was -2.38 ± 0.32.

Regarding GAGAAGCAAUAUUACGCGUU, the “self-splicing fitness (ln)” value reads like this: (30 °C) -2.08 ± 0.23; (37 °C) -0.752 ± 0.18.

GGUUAGCAAUAUUACGCUAA: under “30 °C”, the “self-splicing fitness (ln)” value was -1.98 ± 0.41.

On to AGCUAGCAAUAUUACGUAAC, for which the “self-splicing fitness (ln)” value is -2.01 ± 0.15 (30 °C) and -0.993 ± 0.16 (37 °C).

AGGCAGCAAUAUUACGGCGA: the “self-splicing fitness (ln)” value (30 °C) is -0.378 ± 0.075 and the “self-splicing fitness (ln)” value (37 °C) is -0.154 ± 0.091.

As for AUUAAGCAAUAUUACGCAGG, the “self-splicing fitness (ln)” value is -2.22 ± 0.19 (30 °C) and -0.608 ± 0.2 (37 °C). The like results for AUAUAGCAAUAUUACGAUGG were, in that order, -3.07 ± 0.31 and -0.944 ± 0.26. As for CUCUAGCAAUAUUACGGUGU, the “self-splicing fitness (ln)” value is -3 ± 0.19 (30 °C) and -2.63 ± 0.3 (37 °C). On to ACGUAGCAAUAUUACGCGAC, for which the “self-splicing fitness (ln)” value runs as follows: (30 °C) -3.16 ± 0.21; (37 °C) -1.9 ± 0.22. With CAGCAGCAAUAUUACGUGCC, the “self-splicing fitness (ln)” value is, setting by setting: (30 °C) -3.2 ± 0.17; (37 °C) -2.05 ± 0.21. For UAGAAGCAAUAUUACGGAAA, the “self-splicing fitness (ln)” value reads like this: (30 °C) -2.02 ± 0.17; (37 °C) -1.41 ± 0.24. As to UAUGAGCAAUAUUACGCCGC, the “self-splicing fitness (ln)” value is -1.9 ± 0.31 (30 °C) and -1.02 ± 0.42 (37 °C). Consider GUUUAGCAAUAUUACGAGUU, for which the “self-splicing fitness (ln)” value (30 °C) is -4.25 ± 0.29 and the “self-splicing fitness (ln)” value (37 °C) was -2.3 ± 0.14. Take CGAUAGCAAUAUUACGGCUU: the “self-splicing fitness (ln)” value is -2.67 ± 0.17 (30 °C) and -1.51 ± 0.19 (37 °C). The like results for CCCAAGCAAUAUUACGUAAG were, in that order, -3.05 ± 0.19 and -1.87 ± 0.16. AAAGAGCAAUAUUACGAUUA: the “self-splicing fitness (ln)” value is -2.18 ± 0.22 (30 °C) and -0.939 ± 0.17 (37 °C). For UAACAGCAAUAUUACGGAUU, in that order: -3.02 ± 0.12 and -0.666 ± 0.094.

Consider CCCAAGCAAUAUUACGUAGU, for which the “self-splicing fitness (ln)” value runs as follows: (30 °C) -3.65 ± 0.2; (37 °C) -1.93 ± 0.14.

On to UAACAGCAAUAUUACGCCCA, for which the “self-splicing fitness (ln)” value runs as follows: (30 °C) -0.674 ± 0.12; (37 °C) 0.423 ± 0.15. For AGGGAGCAAUAUUACGUUGG, the “self-splicing fitness (ln)” value reads like this: (30 °C) -4.08 ± 0.37; (37 °C) -2.5 ± 0.33. In the case of AGCCAGCAAUAUUACGACAA, the “self-splicing fitness (ln)” value (30 °C) is -3.47 ± 0.23 and the “self-splicing fitness (ln)” value (37 °C) is -3.18 ± 0.2. The like results for GGCGAGCAAUAUUACGUGCG were, in that order, -1.65 ± 0.11 and -0.955 ± 0.1. The like results for GAAAAGCAAUAUUACGACCG were, in that order, -0.942 ± 0.14 and -0.33 ± 0.17.

Turning to UUGCAGCAAUAUUACGUCCU, the “self-splicing fitness (ln)” value by setting is: (30 °C) -0.816 ± 0.14; (37 °C) -0.682 ± 0.18. Turning to GUUCAGCAAUAUUACGAAGC, the “self-splicing fitness (ln)” value by setting is: (30 °C) -0.705 ± 0.18; (37 °C) -1.29 ± 0.2. For CGAGAGCAAUAUUACGAGUC, in that order: -3.99 ± 0.4 and -3.75 ± 0.34. For the sequence GAAGAGCAAUAUUACGACGA, the “self-splicing fitness (ln)” value (37 °C) was -2.03 ± 0.42. Turning to UAAGAGCAAUAUUACGGAGG, the “self-splicing fitness (ln)” value runs as follows: (30 °C) -3.41 ± 0.32; (37 °C) -1.95 ± 0.46. GGUUAGCAAUAUUACGGGGC: the “self-splicing fitness (ln)” value (37 °C) was -2.66 ± 0.4. On to AGUGAGCAAUAUUACGAAGA, for which the “self-splicing fitness (ln)” value is -2.9 ± 0.35 (30 °C) and -1.85 ± 0.18 (37 °C). The like results for AAGGAGCAAUAUUACGGAAU were, in that order, -3.44 ± 0.25 and -2.71 ± 0.26.

Turning to CCGGAGCAAUAUUACGGAGA, the “self-splicing fitness (ln)” value is -3.99 ± 0.39 (30 °C) and -2.24 ± 0.25 (37 °C). For CUUGAGCAAUAUUACGGUGU, in that order: -3 ± 0.13 and -3.01 ± 0.18. For the sequence CUGAAGCAAUAUUACGCUAU, the “self-splicing fitness (ln)” value (30 °C) is -3.68 ± 0.16 and the “self-splicing fitness (ln)” value (37 °C) was -2.04 ± 0.14. Regarding GCAGAGCAAUAUUACGUGAC, the “self-splicing fitness (ln)” value reads like this: (30 °C) -2.91 ± 0.12; (37 °C) -1.54 ± 0.11.

On to GCAUAGCAAUAUUACGGGGC, for which the “self-splicing fitness (ln)” value is -3.43 ± 0.23 (30 °C) and -2.72 ± 0.32 (37 °C). For the sequence AAGCAGCAAUAUUACGCGGA, the “self-splicing fitness (ln)” value reads like this: (30 °C) -2.59 ± 0.13; (37 °C) -1.46 ± 0.11. For CGUAAGCAAUAUUACGGUGA, in that order: -3.29 ± 0.17 and -3.18 ± 0.22. Turning to GAGGAGCAAUAUUACGCGAG, for the setting “37 °C”, the “self-splicing fitness (ln)” value is -2.99 ± 0.35.

For AACUAGCAAUAUUACGUAGU, the “self-splicing fitness (ln)” value was -2.24 ± 0.084 (30 °C) and -1.39 ± 0.12 (37 °C). The like results for AGCCAGCAAUAUUACGUAUU were, in that order, -3.72 ± 0.13 and -2.05 ± 0.12. For AGGCAGCAAUAUUACGAUGC, in that order: -3.17 ± 0.15 and -2.8 ± 0.18. For GUAUAGCAAUAUUACGAGUU, in that order: -3.29 ± 0.19 and -1.17 ± 0.14. As for AGCAAGCAAUAUUACGCUCA, the “self-splicing fitness (ln)” value is, setting by setting: (30 °C) -2.66 ± 0.18; (37 °C) -1.69 ± 0.15. Take ACGUAGCAAUAUUACGACCU: the “self-splicing fitness (ln)” value by setting is: (30 °C) -0.0641 ± 0.099; (37 °C) 0.527 ± 0.11. For GGACAGCAAUAUUACGUUUG, in that order: -0.577 ± 0.04 and -0.1 ± 0.058.

For the sequence ACAUAGCAAUAUUACGCCCG, the “self-splicing fitness (ln)” value (30 °C) was -0.76 ± 0.16 and the “self-splicing fitness (ln)” value (37 °C) is -0.298 ± 0.15. The like results for GAAUAGCAAUAUUACGGUAU were, in that order, -3.54 ± 0.18 and -1.32 ± 0.16. In the case of AGGUAGCAAUAUUACGGUCA, the “self-splicing fitness (ln)” value is, setting by setting: (30 °C) -0.279 ± 0.014; (37 °C) 0.00808 ± 0.033. The like results for CCGGAGCAAUAUUACGGUAG were, in that order, -2.71 ± 0.14 and -2.75 ± 0.21. The like results for AAAGAGCAAUAUUACGGGCC were, in that order, -2.09 ± 0.3 and -1.86 ± 0.41. In the case of UCGAAGCAAUAUUACGCGCC, the “self-splicing fitness (ln)” value (37 °C) is -1.49 ± 0.28. Turning to UAGAAGCAAUAUUACGAUGG, the “self-splicing fitness (ln)” value was -1.84 ± 0.097 (30 °C) and -1.32 ± 0.12 (37 °C).

Turning to GAGUAGCAAUAUUACGACUU, the “self-splicing fitness (ln)” value was -3 ± 0.15 (30 °C) and -2.63 ± 0.24 (37 °C). For GCCAAGCAAUAUUACGCCAU, the “self-splicing fitness (ln)” value (30 °C) is -3.22 ± 0.37 and the “self-splicing fitness (ln)” value (37 °C) is -3.45 ± 0.46.

The record behind these values is the supplement of paper PMC7877785.
